US20230399412A1 (NANJING IASO BIOTECHNOLOGY, published 2023)

T1: CD70 on the cell surface of CD70-positive cell lines (UniProt P32970 1-193, limits assumed)
T1 construct: whole, on cells; One molecule for all cell lines; the cell line is named under assay; also called natural CD70 on the cell surface; CD70 antigen on Raji, U266, THP-1, RS4:11, REH, Molm-13 cells
T1 sequence (looked up): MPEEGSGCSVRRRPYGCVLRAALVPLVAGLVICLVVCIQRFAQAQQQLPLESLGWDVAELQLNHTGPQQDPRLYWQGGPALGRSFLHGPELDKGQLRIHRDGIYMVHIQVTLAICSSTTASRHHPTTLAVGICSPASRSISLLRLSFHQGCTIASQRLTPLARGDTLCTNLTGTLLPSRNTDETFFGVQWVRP

T2: Human CD70/CD27 Ligand Protein-his-Trimer-Biotin (Kactus, CD7-HM271) (human, UniProt P32970 39-193, biotinylated)
T2 construct: Bought reagent, named a trimer; also called Kactus-CD70Trimer-his-Bio; Katcus-CD70 Trimer-His-Bio; not shown: His tag (and any trimerisation part)
T2 sequence (looked up): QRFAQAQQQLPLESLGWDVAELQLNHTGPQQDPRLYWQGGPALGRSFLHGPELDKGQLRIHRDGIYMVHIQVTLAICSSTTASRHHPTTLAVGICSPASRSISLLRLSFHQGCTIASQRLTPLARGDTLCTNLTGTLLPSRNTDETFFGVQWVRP

T3: Biotinylated Human Siglec-2/CD22 Protein, human Fc, Avitag (ACRO biosystem, SI2-H82F8) (human, UniProt P20273 20-687, biotinylated (Avitag))
T3 construct: Irrelevant control antigen; also called Acro-CD22-Bio; CD22-Fc-Bio; not shown: human Fc and Avitag
T3 sequence (looked up): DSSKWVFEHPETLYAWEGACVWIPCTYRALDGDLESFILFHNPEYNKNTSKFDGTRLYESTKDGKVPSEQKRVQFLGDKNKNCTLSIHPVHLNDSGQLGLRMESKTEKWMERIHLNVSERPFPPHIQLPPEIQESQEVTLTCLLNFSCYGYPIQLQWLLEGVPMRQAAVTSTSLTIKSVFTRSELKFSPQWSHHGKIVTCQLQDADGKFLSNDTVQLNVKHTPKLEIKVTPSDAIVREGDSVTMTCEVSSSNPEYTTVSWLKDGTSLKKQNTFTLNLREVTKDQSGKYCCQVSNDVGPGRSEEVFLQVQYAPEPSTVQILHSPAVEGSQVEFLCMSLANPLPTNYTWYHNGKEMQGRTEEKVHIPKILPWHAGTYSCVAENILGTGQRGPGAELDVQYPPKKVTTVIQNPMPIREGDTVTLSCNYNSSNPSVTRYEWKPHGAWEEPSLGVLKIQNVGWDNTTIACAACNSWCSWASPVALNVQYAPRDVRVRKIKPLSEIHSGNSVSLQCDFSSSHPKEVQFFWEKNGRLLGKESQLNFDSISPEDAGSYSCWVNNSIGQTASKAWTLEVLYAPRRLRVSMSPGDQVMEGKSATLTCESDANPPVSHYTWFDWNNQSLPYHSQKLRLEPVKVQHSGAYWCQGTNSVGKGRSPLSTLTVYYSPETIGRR

T4: Biotinylated Human CD27 Ligand, Avitag, human Fc Tag (ACRO biosystem, TN7-H82F4) (human, UniProt P32970 39-193, biotinylated (Avitag))
T4 construct: Bought reagent; also called Acro-CD70-Fc-Bio; not shown: human Fc tag and Avitag
T4 sequence (looked up): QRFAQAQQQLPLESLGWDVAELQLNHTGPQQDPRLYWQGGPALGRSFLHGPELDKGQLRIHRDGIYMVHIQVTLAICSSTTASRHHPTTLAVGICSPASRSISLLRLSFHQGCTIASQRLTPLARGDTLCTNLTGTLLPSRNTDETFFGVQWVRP

T5: Human CD70/CD27 Ligand Protein (human FC Tag)-Biotin (Kactus, CD7-HM270) (human, UniProt P32970 39-193, biotinylated)
T5 construct: Bought reagent; also called Kactus-CD70-Fc-Bio; Katcus-CD70-Fc-Bio; not shown: human Fc tag
T5 sequence (looked up): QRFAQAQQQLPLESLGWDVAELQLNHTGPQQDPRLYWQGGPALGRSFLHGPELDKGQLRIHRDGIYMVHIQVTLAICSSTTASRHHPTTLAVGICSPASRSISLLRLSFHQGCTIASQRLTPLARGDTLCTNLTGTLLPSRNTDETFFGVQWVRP

T6: Biotinylated Human CD27 Ligand, HIS, Avitag (ACRO biosystem, CDL-H82Q9) (human, UniProt P32970 39-193, biotinylated (Avitag))
T6 construct: Bought reagent; also called Acro-CD70-his-Bio; CD70-his-Bio; not shown: His tag and Avitag
T6 sequence (looked up): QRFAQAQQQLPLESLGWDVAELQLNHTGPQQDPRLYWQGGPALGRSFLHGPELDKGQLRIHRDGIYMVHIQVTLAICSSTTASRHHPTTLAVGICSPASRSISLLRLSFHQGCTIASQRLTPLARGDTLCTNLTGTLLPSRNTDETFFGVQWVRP

T7: Human CD70/CD27 Ligand Protein-his-Trimer (Kactus, CD7-HM271-1) (human, UniProt P32970 39-193)
T7 construct: Bought reagent, named a trimer; also called Kactus-CD70 Trimer-his; Kactus-CD70Trimer-his; not shown: His tag (and any trimerisation part)
T7 sequence (looked up): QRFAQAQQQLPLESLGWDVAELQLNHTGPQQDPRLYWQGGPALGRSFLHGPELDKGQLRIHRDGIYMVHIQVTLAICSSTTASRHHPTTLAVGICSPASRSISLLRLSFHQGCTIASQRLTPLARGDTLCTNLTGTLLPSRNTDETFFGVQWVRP


Tests used:
[1] = molecular target: T1, CD70 on the cell surface of …; assay: phage FACS on CD70-positive cell lines (Raji, U266)
[2] = molecular target: T2, Human CD70/CD27 Ligand …; assay: phage ELISA
[3] = molecular target: T3, Biotinylated Human Siglec-2/CD22 …; assay: phage ELISA
[4] = molecular target: T4, Biotinylated Human CD27 Ligand, Avitag, …; assay: phage ELISA
[5] = molecular target: T5, Human CD70/CD27 Ligand Protein (human …); assay: phage ELISA
[6] = molecular target: T6, Biotinylated Human CD27 Ligand, HIS, …; assay: phage ELISA
[7] = molecular target: T7, Human CD70/CD27 Ligand …; assay: phage ELISA

| Binder | binding result [1] | binding result [2] | binding result [3] | binding result [4] | binding result [5] | binding result [6] | binding result [7] |
| --- | --- | --- | --- | --- | --- | --- | --- |
| phage monoclonal antibody clone #9 (VHH, single-domain antibody (heavy chain variable region alone); also called VHH 09; 09 antibody) VHH: EVQLLESGGGLVQPGGSLRLSCAASGFTFNIDAMGWVRQAPGKGLEWVSSISSSGGTTYYADSVKGRFTISRDNSKNTLYLQMNSLRAEDTAVYYCARSRYSVPDGRGSYDVWGQGTLVTVSS | binds | binds | no binding | binds | binds | binds | binds |
| phage monoclonal antibody clone #20 (VHH, single-domain antibody (heavy chain variable region alone); also called VHH20; VHH 20) VHH: EVQLLESGGGLVQPGGSLRLSCAASGFTFSSYAMGWVRQAPGKGLEWVSSISGYGEETYYADSVKGRFTISRDNSKNTLYLQMNSLRAEDTAVYYCARFYYRYWKEFDYWGQGTLVTVSS | binds | binds | no binding | binds | binds | binds | binds |
| phage monoclonal antibody clone #13 (VHH, single-domain antibody (heavy chain variable region alone); also called VHH13; VHH 13) VHH: EVQLLESGGGLVQPGGSLRLSCAASGFTFSSEAMGWVRQAPGKGLEWVSSINGSGRNTYYADSVKGRFTISRDNSKNTLYLQMNSLRAEDTAVYYCARKHGEYYDSGYDVWGQGTLVTVSS |  |  | no binding |  |  |  |  |
| phage monoclonal antibody clone #21 (VHH, single-domain antibody (heavy chain variable region alone); also called VHH21; VHH 21) VHH: EVQLLESGGGLVQPGGSLRLSCAASGFTFSNYAMGWVRQAPGKGLEWVSSITGLGGNMYYADSVKGRFTISRDNSKNTLYLQMNSLRAEDTAVYYCARMYYSQGVNNYSYPSTDIWGQGTLVTVSS | binds | binds | no binding | binds | binds | binds | binds |
| phage monoclonal antibody clone #6 (scFv, also called scFv 06; Scfv06) scFv: QAVLTQPPSASATPGQRVSISCSGSSSNIGRNTVNWYQHLPGTAPKLLIYSNDHRPSGVPDRFSGSQSGTSASLAISGLQSEDEADYYCASWDDSLTGWVFGGGTKVTVLGSRGGGGSGGGGSGGGGSLEMAQVQLVQSGAEVKKAGSSLKVSCKANGGSFTNYLINWVRQAPGQGLEWMGGIIPVYGTPIYSQKFQGRVTFTADEPTRTAYMELSSLTFEDTAVYYCVREDEGYGDLYLAYWGQGTLVTVSS | binds | binds | no binding | binds | binds | binds | binds |
